The values below come from the DeepSol protein solubility set.

This data set in a line: soluble on expression in E. coli; label from the status in PepcDB or PDB records.
Turning to “MGSDKIHHHHHHMKIGIIGAGRVGCSIGKYLRTKDIELAGYYDVDSAAAKEAAEFTRTESFDSLKQLADQSQIIFITTPDSFIIPVWEQLKELSLTNQIICHCSGALSSDSFSGRESMSVSCCSIHPMLPFSNKFSSYEQLNKAFFTVEGQDAAVEAISGLFCSIGNEVCRIDGAKKAKYHAAASILSNQVIAVLDMGYSLLEDCGFTRAEAVRATGQLVMRNIENVLEAGCDGALTGPIERNDIETVKKHIACMQNDDSDDVRLYKMLGTKLVNIAEKKNPDKDYTQMMELLRG”, the “soluble on expression in E. coli” value was “not soluble”.

On to “MGSDKIHHHHHHMKTRDKIIQASIELFNEQGERNVTTNHIAAHLAISPGNLYYHFRNKEDIILSIYEEYARSLLLETLPKVSSEVKPLDSLILYMDSVFQTTMKFRFFYSNLPVLLDKNPILREKYVEVQQSISERVSQLLISLRAADYIDFNDDELADIVSILRLINTFWVSFHQTQTIVNEVNDSVFYQGVLKILVILRPYTKAHAISELNHARDVYQQRYREEAETA”, for which the “soluble on expression in E. coli” value was “not soluble”.

Take “MKTKLDFLKMKESEEPIVMLTAYDYPAAKLAEQAGVDMILVGDSLGMVVLGLDSTVGVTVADMIHHTKAVKRGAPNTFIVTDMPFMSYHLSKEDTLKNAAAIVQESGADALKLEGGEGVFESIRALTLGGIPVVSHLGLTPQSVGVLGGYKVQGKDEQSAKKLIEDSIKCEEAGAMMLVLECVPAELTAKIAETLSIPVIGIGAGVKADGQVLVYHDIIGHGVERTPKFVKQYTRIDETIETAISGYVQDVRHRAFPEQKHSFQMNQTVLDGLYGGKLEHHHHHH”: the “soluble on expression in E. coli” value is recorded as “soluble”.

For “MGSDKIHHHHHHMRVFNSSPPSEAQTRTRILQAAQRLFASQGFDGTTTRDLAQAAGVAEGTLFRHFPNKKAILVEVATSGWVEILTDLLTELSEMGSYKAVAQVMRRRMWNFQKNADLMRVCFMEVQFHPDLRDRIQLEVITKMTDVGEAFFQTAMDKGIYRKMDAKLVAKVFLGMFAIAGFSNNTLIEPDASPQQMQEMAEGLADIFLNGVLAKD”, the “soluble on expression in E. coli” value is “not soluble”.

As to “MVTKRIIPCLDVHNGRVVKGVNFVNIRDAGDPVEIASYYDKAGADELTFLDITASAEARNIMIDVVRRVAEQVFIPFTVGGGIRTVEDFREILKAGADKVSINSAAVKRPELISEAASRFGSQCVVVAIDAKRRDDNSGWDVYINGGRINTGKDAVEWAVEVEKLGAGEILLTSMDCDGTKKGYDIELTRKVSESVRIPVIASGGAGTMEHFREALVEGKADAVLAASLFHYREIEIMELKKYLKENGIEIRM”, the “soluble on expression in E. coli” value was “not soluble”.

As for “MTAIPASARIVLDTEIPARVPWSAIIRKGQTLRIVDSHGQQAVDTLFYAADDHGERYSGQDTLRAQGSAYVTTGTRIMSTEGRTMLRMVADSCGLHDTSAGACSCESNTVRFGHQTKYLHACRENFVLEAAKHGLSKRDIVPNLNFFMNVPLDPDGNFTVVDGVSKPGDYVEMVAEMDVLCLISNCPQVNNPCNGFFPTPIQVVIYEAGEDLEHHHHHH”, the “soluble on expression in E. coli” value was “soluble”.

On to “MRDATPFYEATGHEIEVFERAWRHGLPVLLKGPTGCGKTRFVQYMARRLELPLYSVACHDDLGAADLLGRHLIGADGTWWQDGPLTRAVREGGICYLDEVVEARQDTTVAIHPLADDRRELYLERTGETLQAPPSFMLVVSYNPGYQNLLKGLKPSTRQRFVALRFDYPAAQQEARILVGESGCAETLAQRLVQLGQALRRLEQHDLEEVASTRLLIFAARLIGDGMDPREACRVALAEPLSDDPATVAALMDIVDLHVALEHHHHHH”, for which the “soluble on expression in E. coli” value is listed as “not soluble”.

Turning to “MGSDKIHHHHHHMGKLVLAAKVSHVPSLMLSETSDSPLRQARAGAVAALRELGRRAKEREVTTFVVFDTHWLSNFGYHINANAQHRGSFTSHEAPHMIQDLRYDLPGDPALAQAIAAEAQSHGLKVLAHQVPTLGLEYGTIVPMHYLNSDGWAKIVSIASPLFTSIEESRALGEATRRAIDASDERVAILASGSLSHRLWPNKDLGPDAWTTIASEFNRQVDLRVLQLWQERRYREFTAMLPDYAVKCNGEGGMADTVMLFAALGWDDYTGEAEPLCDYFPSSGSGQVNVEFHVS”, the “soluble on expression in E. coli” value was “not soluble”.

With “MTEIVERMKKKNIVKPIVYGNTATPFGYKRDSDQHTHQWTVFLKPYLIEDPTKWIRKVQFKLHESYAVPYRVVEKPPYEVTETGWGEFEIQIRIYFVDPNEKPITAFHYLRLFQPTIELPSGNQIVCMEFYDEIIFQEPTVQMYKALQASDGKRPDKQAFLNDIEQVKTRTRELGEVAQKEIAAEIEDLRESLKDAHKMIVKYNTELAEQE”, the “soluble on expression in E. coli” value is reported as “not soluble”.

As to “MKIKILVDEYNTQKEQAKKVRKATSLYFRIHPSIMASKTLRVLFLGPKGTYSHQAALQQFQSTSDVEYLPAASIPQCFNQLENDTSIDYSVVPLENSTNGQVVFSYDLLRDRMIKKALSLPAPADTNRITPDIEVIAEQYVPITHCLISPIQLPNGIASLGNFEEVIIHSHPQVWGQVECYLRSMAEKFPQVTFIRLDCSSTSESVNQCIRSSTADCDNILHLAIASETAAQLHKAYIIEHSINDKLGNTTRFLVLKRRENAGDNEVEDTGLLRVNLLTFTTRQDDPGSLVDVLNILKIHSLNMCSINSRPFHLDEHDRNWRYLFFIEYYTEKNTPKNKEKFYEDISDKSKQWCLWGTFPRNERYYHK”, the “soluble on expression in E. coli” value is “not soluble”.

Turning to “EFGEPAPANAESSSVAALKIGKVGNFGDCTGTLVADQWVLTARHCLESVNNEGTQARIGGKVYDADSWALSPVSDAGLLHLTEKVTDATPAKVSRDIPTPGQTGTLYGWSSSSSLARSGQLPMAKMVVKELLGGGPSQGTPSEGAPGGATPGEVAPGGAAPSETVPSESQAESIPAGTESIPADGAMMPMIQSAILDAHSVSGAGMQGGDSGGPFFVDGKLAGLATAGTANGDPDLPSPSAAITTLAGTADWIDGVTSGRDTKSVLTAENTPAPPKTIQTSADH”, the “soluble on expression in E. coli” value is recorded as “not soluble”.

Turning to “MRGLRKEALEELMKLLNMKDFPYRIEGIDISHLQGKYTVASLVVFEDGFPKKGDYRRYKIEQDHPDDYESIRTVVKRRYSKHPLPNLLFVDGGIGQVNAAIEALKEIGKDCPVVGLAKKEETVVFENREIHLPHDHPVLRLLVQIRDETHRFAVSYHRKRREKESLRSVLDNVPGIGPIRKKKLIEHFGSLENIRSASLEEIARVIGSTEIARRVLDILG”, the “soluble on expression in E. coli” value is “soluble”.

With “MSLKIILVEDEENLARLLKEAIGDNFHSFTVAKDGIEGIEFFKKIRPDIVITDIMMPNLDGLKMAKELKRINPNIPIIILSAFSEKEKLLSAIDVGITKYFIKPFDAEELLEYISSITSRIENKILKLSDCYIFNKNTSSLYKNEKYIALSKNDIKFLYLLLDSKNRTVDDISIKEALWGGDASDERLRTFIKRFREKTSKMLIKNIKGFGYQLLLNEGHHHHHH”, the “soluble on expression in E. coli” value is reported as “not soluble”.

“MGSDKIHHHHHHMIKNAVKKIIDMEWFARMMEVLDHRSDNRMTELGMLSQAFEFIKINEVCGDYLEFGLWRGKTFGYAHRMKHRYRRQDMKLWGFDSFQGLPDTGAHPDNIWYKGQFACSRPEFESILKSRGIRSCEYELVEGFYRESLNDATRRRLAGRKAAIVYIDCDLYDSTVEVLDFIQPYLVNGSIVCFDDFYNYKADPEQGEQKALSDFLRKESGICFIPYMAYAPLGKSFICRRT”: the “soluble on expression in E. coli” value was “not soluble”.

Turning to “MAHHHHHHMLYLKEIELGNYYICNLNDYPSEHCVVDYDPNKRIKFLCPIVHNEGEHMNTYNSSYCFTYEGIKDRLIIRNNEEPIYTTLPGIILENQILYDRYNLGIYIMPFKLEADMSIVCVCDTKKEYKGITPYIKINIKNSNNVLGVGSSDEYIKGCDFGNNKGKHQFLTSPQSHEHRSVCAILANPGDIVGINCINYNEDDPQNNDVTLEPSNCFSTVSFSLYTFSFVKMNINNILPDAKYYPETSAFPKDPNFKKFSTTSYLWIPANVPQAFFLVCSCKYAKGEGTAMYHVSSSTLEV”, the “soluble on expression in E. coli” value is reported as “not soluble”.

In the case of “GSFLLPKLTSKKEVDQAIKSTAEKVLVLRFGRDEDPVCLQLDDILSKTSSDLSKMAAIYLVDVDQTAVYTQYFDISYIPSTVFFFNGQHMKVDYGSPDHTKFVGSFKTKQDFIDLIEVIYRGAMRGKLIVQSPIDPKNIPKYDLLYQDI”, the “soluble on expression in E. coli” value was “soluble”.

Turning to “MTNYIYPKFGYLRSKEQAEGIVKRHPIVVIGAGPVGLTAALDCAARGQPVVLLDDNDTVSIGSRAVCYAKRPLEIWNRLDCADPMVERGVSWNVGKVFFRDELSYQFDLLPESDHEWPAMINLQQYHLEEILVARCRASPLIDLRWKHRLISLKQAADHAELAVETPDGIFTMEAQWVIACDGANSDTRKMVGAEFKGQYFEDRFLIADVAMKADFPTERWFWFDPPFHPAQSVLLHRQADDIWRIDFQLGWDADPDEEKRPERVIPRIKAMLGEDTEFELEWVSIYQFACRRIDKFRHGRVLFAGDAAHQVSPFGARGANTGVQDIDNLAWKLAMVLRGEAPEALLDSYHDERAYAADDNILNSTRATDFITPKTKVSRHFRDAVLELAQHHGFARPLVNSGRLSTPTPYVTSPLNTFDDSLLDGEMRPGTNAADAPVTIGGKPDWFLNCLGAGFVVVTFDQAVDNERIEVGPIAARVIRVGRDIDDPRGVLASRYGTSTGTTYLFRPDQYVAARWAGFDEGKISAALLRATAQDAVRQKEIAALEHHHHHH”, the “soluble on expression in E. coli” value is reported as “not soluble”.

As to “MVAEVSPKLAASPMKKPFGFRGKMGKWCCCCFPCCRGSGKNNMGAWRDHDDSAFTEPRYHVRREDLGKLHRAAWWGEVPRADLIVMLRGPGINKRDKKKRTALHLACANGNSEVVSLLLDRQCQLHVFDSKKRTALIKAVQCQEDECALMLLQHGTDPNLPDMYGNTALHYAVYNEDKLMAKTLLLYGADIESKNKGGLTPLLLAVHGQKQRMVKFLIKKKANLNALDRFGRICQLLSDYKENQMPNNSSGNSNPEQDLKLTSEEEPQRLKGSENSQHEKVTQEPDINKDCDREVEEEMQKHGSNNVGLSENLTDGAAAGNGDGGLVPQRKSRKHENQQFPNTEIEEYHRPEKKSNEKNKVKSQIHSVDNLDDITWPSEIASEDYDLLFSNYETFTLLIEQLKMDFNDSASLSKIQDAVISEEHLLELKNSHYEQLTVEVEQMENMVHVLQK”, the “soluble on expression in E. coli” value is given as “not soluble”.

In the case of “MKESAASVAVRPQLREVFERFPADAHRTIEDEIHEMMKCYAFDDAIFLAELHYETDKSNNSESLLLYADCLYRANKKEECYGLLSSVKLSGARLFYLLARVSYDLNKIDDCRGALFEHDDGVIRKDILEEPRVASHANLLHAQMLCDESYMDLALESCQKSLDENILLWSAIITYLRFGGHDLAHTFEKHHRKSNGLYLDSPASSLKSETPSPNVPGPSSSSAASTAEPSRLESSVRRSTRGTIASANRETRNTTSNITPRQSTPGSTPSRINPTAPRKSSRISEMTTRRTESSVTGSRSSLFTEPERPHTRATHSSRNRANAALNSDTENSNASNTRTRSGIASVTRGSSSSQRTNPVRTSIRIADAAAAANKTAKTLSQRRRNEKQPLVSRNSNLARSLSGSTNSVASTASERPSEDEVSQINPPLPSVASSLNNDEPMDIVDGVYDPEYKKLFDVYQHIALIEESISTYNWRSADALFAKLDRDIILNTSMVRLQLGRACFEQSEYRECRNILDDLHKRRKWKVDGTELLSTSMWHLQDTHALSALSQILTTESRERPQSWCAAGNCFSLQRQHTQAIECMERAIQLDKRFAYAYTLLGHELIVQDELDKAAGSFRSALLLSPRDYRAWYGLGLVHLKKEQNLTALTNIQKAVNINPTNRAMLCTLSQIEQQRGQIDTALVLIDRALTLNPLDVACRFNRSRLLFEANRNEECLVELDKLKASSPDEAFIFHLLARVHRRMGNTHLALLNYSWAAELDPRGEQNITDSNVINREEYEDDEYGSPV”, the “soluble on expression in E. coli” value was “not soluble”.

“MGSDKIHHHHHHMSRPADKPQPFYFAYGSNMNPAQIEARCRKPEVVATARLPDHRLGFFGSSKIWDGGEESAQPEPGADLWGVVYRLSFHDAEILDTWQKVWLDGTGPYFHFPTQVFDAEGRNYPVLLYKRDVLGPRQKPSAPYLDHIIAGAMARALPPPYIDLLRAIPTCQASTPVPRKASFNPEFFAGLACQCGD”: the “soluble on expression in E. coli” value is on record as “not soluble”.
